Assay [1] addresses T1, recombinant human FGFR3 IIIc Fc fusion protein (human, UniProt P22607 23-375).
T1 construct: Bought reagent; also called rhFGFR3 IIIc Fc; not shown: Fc fragment (removable by Factor Xa)
T1 sequence (looked up): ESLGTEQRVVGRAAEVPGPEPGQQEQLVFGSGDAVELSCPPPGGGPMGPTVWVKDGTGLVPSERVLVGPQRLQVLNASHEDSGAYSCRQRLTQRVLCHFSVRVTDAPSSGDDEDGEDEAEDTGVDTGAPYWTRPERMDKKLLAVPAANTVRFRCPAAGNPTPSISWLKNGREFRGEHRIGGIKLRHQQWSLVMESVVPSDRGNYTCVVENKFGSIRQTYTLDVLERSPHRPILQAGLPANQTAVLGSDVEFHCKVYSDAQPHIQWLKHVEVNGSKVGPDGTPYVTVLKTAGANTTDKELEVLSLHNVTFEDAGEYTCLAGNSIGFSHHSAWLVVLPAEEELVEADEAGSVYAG
The assay is described as follows: SPR (Biacore T100), antibody captured on anti-mouse Ig, rhFGFR3 IIIc Fc as analyte, 25 C. Here is the method: (§1) The binding affinities and kinetics of interaction of the monoclonal antibodies (15D8, 27H2, 2G4, and 4E7(7D12)) produced in Example 1 against recombinant human FGFR3 (IIIb and IIIc isoforms) Fc fusion protein (rhFGFR3 IIIb Fc or rhFGFR3 IIIc Fc) were measured by surface plasmon resonance using a Biacore™ T100 (Biacore) instrument.
(§2) Rabbit anti-mouse immunoglobulins (Biacore, Catalog No. BR-1005-14) were immobilized on carboxymethylated dextran CM4 sensor chips (Biacore, Catalog No. BR-1005-34) by amine coupling (Biacore, Catalog No. BR-1000-50) using a standard coupling protocol according to manufacturer's instructions.
(§3) The antibodies were captured in an individual flow cell at a flow rate of 10 μl/min. Injection time was varied for each antibody to yield approximately 40-50 RU of antibody captured for each cycle. Buffer or rhFGFR3 IIIb Fc (R&D Systems, Catalog No. 1264-FR-050) or rhFGFR3 IIIc Fc (R&D Systems, Catalog No. 766-FR-050) diluted in running buffer was injected sequentially over a reference surface (no antibody captured) and the active surface (antibody to be tested) for 300 sec at 60 μl/min. The dissociation phase was monitored for 30 minutes. The surface was then regenerated with two 60-seconds injection of 10 mM Glycine-HCl, pH 1.7 (made from Glycine pH 1.5 (Biacore, Catalog No. BR-1003-54) and pH 2.0 (Biacore, Catalog No. BR-1003-55)) at a flow rate of 60 μl/min. rhFGFR3 Fc concentrations tested were 0.62 nM to 40 nM.

Assay [2] addresses T2, recombinant human FGFR3 IIIb Fc fusion protein (human, UniProt P22607-2 23-377, limits assumed).
T2 construct: Bought reagent; the IIIb splice isoform is meant; also called rhFGFR3 IIIb Fc; hFGFR3 IIIb; not shown: Fc fragment (removable by Factor Xa, detected with anti-human IgG)
T2 sequence (looked up): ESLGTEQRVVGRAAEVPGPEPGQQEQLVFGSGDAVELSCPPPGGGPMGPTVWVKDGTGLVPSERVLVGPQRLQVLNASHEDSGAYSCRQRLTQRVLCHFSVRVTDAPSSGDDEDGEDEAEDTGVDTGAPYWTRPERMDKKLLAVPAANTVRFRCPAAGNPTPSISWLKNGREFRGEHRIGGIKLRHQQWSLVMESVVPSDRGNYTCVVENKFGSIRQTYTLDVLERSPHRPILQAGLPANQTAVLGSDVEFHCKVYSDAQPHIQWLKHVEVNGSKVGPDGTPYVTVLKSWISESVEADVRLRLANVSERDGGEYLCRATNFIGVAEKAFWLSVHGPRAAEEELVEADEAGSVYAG
The assay is described as follows: SPR (Biacore T100), antibody captured on anti-mouse Ig, rhFGFR3 IIIb Fc as analyte, 37 C. Here is the method: as §1, §2, §3
(Surface plasmon resonance follows binding to a sensor surface in real time, without labels.)

Assay [3] addresses T1, recombinant human FGFR3 IIIc Fc fusion …. The assay is described as follows: kinetic exclusion assay (KinExA), antibody and rhFGFR3 IIIc Fc in solution, room temperature. The method, then:
The binding affinities of monoclonal 15D8, chimeric 15D8, and humanized 15D8 antibodies for recombinant human FGFR3 IIIc Fc fusion protein was measured using a kinetic exclusion assay, KinExA® technology (Sapidyne Instruments, Inc.). First, beads were prepared for the purpose of detecting anti-FGFR3 antibody that is unbound to FGFR3 IIIc Fc. This was done by adding 1 ml recombinant human FGFR3IIIc Fc (R&D Systems, Inc.) 10 ug/ml in PBS to 200 mg polymethyl methacrylate (PMMA) hard beads. The suspension was mixed and rotated for two hours at room temperature. Next, the mixture was centrifuged and supernatant was discarded. The bead pellet was rinsed once with 1 ml BSA 10 mg/ml in PBS by incubation for 1 hour at room temperature with rotation. The beads were resuspended in 27 ml PBS with 0.02% NaN₃. Next, a fixed concentration of anti-FGFR3 antibody (0.5 nM) was incubated in solution with a series of FGFR3 IIIc Fc concentrations (started with 50 nM (in PBS BSA (1 mg/ml)) and serially diluted 1:2 in PBS BSA(1 mg/ml) to obtain 50 to 0.0122 nM FGFR3 III Fc) at room temperature for at least 4 hours to allow equilibrium to be reached. By measuring the amount of anti-FGFR3 antibody that is not bound to FGFR3 IIIc Fc, the KD was determined. Unbound anti-FGFR3 antibody was detected by allowing the anti-FGFR3 antibody/FGFR3 IIIc Fc solution to flow through the FGFR3 IIIc Fc PMMA beads. The anti-FGFR3 antibody captured by these beads was then detected with Cy5-conjugated anti-human secondary antibody 0.3 ug/ml (Jackson ImmunoResearch) or Cy5-conjugated anti-mouse secondary antibody (Jackson ImmunoResearch) 0.5 ug/ml in PBS BSA 1 mg/ml. The detected signal for captured anti-FGFR3 antibody is directly proportional to the remaining free binding sites, thus allowing KD determination. The experiments were repeated, varying the concentrations of anti-FGFR3 antibody or FGFR3 III Fc used in solution, and the KD was calculated with the KinExA® software using n-curve analysis.
(In general: A kinetic exclusion assay measures how much of one partner remains free in solution.)

Broadly, the Kd is a measure of binding affinity in units of concentration. For orientation: koff means the rate constant with which the complex falls apart. Broadly, the kon is the second-order rate constant of association.

B1: anti-FGFR3 monoclonal antibody 15D8 (antibody, mouse IgG1, kappa)
heavy: EIQLQQSGPELVKPGASVKVSCKASGYAFTSYNMYWVKQSHGKSLEWIGYIDPYNGGTSYNQKFKGKATLTVDKSSSTAYMHLNSLTSEDSAVYYCAREGGNYEAWFAYWGQGTLVTVSAAKTTPPSVYPLAPGSAAQTNSMVTLGCLVKGYFPEPVTVTWNSGSLSSGVHTFPAVLQSDLYTLSSSVTVPSSTWPSETVTCNVAHPASSTKVDKKIVPRDCGCKPCICTVPEVSSVFIFPPKPKDVLTITLTPKVTCVVVDISKDDPEVQFSWFVDDVEVHTAQTQPREEQFNSTFRSVSELPIMHQDWLNGKEFKCRVNSAAFPAPIEKTISKTKGRPKAPQVYTIPPPKEQMAKDKVSLTCMITDFFPEDITVEWQWNGQPAENYKNTQPIMDTDGSYFVYSKLNVQKSNWEAGNTFTCSVLHEGLHNHHTEKSLSHSPGK
light: QIVLTQSPALMSASPGEKVTMTCSASSSVSYMYWYQQKPRSSPKPWIYLTSYLASGVPARFSGSGSGTSYSLTISSMEAEDAATYYCQQWSSYPLTFGAGTKLELKRADAAPTVSIFPPSSEQLTSGGASVVCFLNNFYPKDINVKWKIDGSERQNGVLNSWTDQDSKDSTYSMSSTLTLTKDEYERHNSYTCEATHKTSTSPIVKSFNRNEC
notes: also called 15D8 IgG1; murine antibody 15D8
As to B1, in assay [1], the Kd amounted to 2.2 nM, the koff came to 0.0002 s⁻¹ and the kon turned out to be 93000 M⁻¹ s⁻¹. Also, in assay [2], the Kd was determined as 3.2 nM, the koff is 0.0003 s⁻¹ and the kon came out at 94000 M⁻¹ s⁻¹. Besides, the Kd in assay [3] was 0.0806 nM.

The record behind these values is patent publication US20100003258A1 (AVEO PHARMACEUTICALS, published 2010).
